In paper PMC10450202, “Updated protein domain annotation of the PARP protein family sheds new light on biological function”:

How the values were obtained:
PARP1 full-length = PARP1 full-length (human, UniProt P09874 2-1014, V762A); test: NMR; 35.5 uM protein, 40 uM DNA; 15N-1H TROSY, 25 C; EMSA: 20 mM HEPES-KOH pH 7.6, 5 mM MgCl2, 1 mM DTT, 20% glycerol, 1 h room temperature, 6% native PAGE; NMR: 10 mM sodium phosphate, 222 mM NaCl, 2.7 mM KCl, 2; settings: protein: recombinant; tags: N-terminal His6 (MKHHHHHHKMQ); dumbbell: two hairpins, mimics single-strand break
PARP14 WWE-ART = target: T1, PARP14 WWE-ART (human, UniProt Q460N5 1459-1801); test: EMSA; 0.5 uM RNA, 1-5 uM protein, 5 mM Mg2+; EMSA: 20 mM HEPES-KOH pH 7.6, 5 mM MgCl2, 1 mM DTT, 20% glycerol, 1 h room temperature, 6% native PAGE; NMR: 10 mM sodium phosphate, 222 mM NaCl, 2.7 mM KCl, 2; settings: protein: recombinant; label: 5' Cy3; single strand
T1 sequence: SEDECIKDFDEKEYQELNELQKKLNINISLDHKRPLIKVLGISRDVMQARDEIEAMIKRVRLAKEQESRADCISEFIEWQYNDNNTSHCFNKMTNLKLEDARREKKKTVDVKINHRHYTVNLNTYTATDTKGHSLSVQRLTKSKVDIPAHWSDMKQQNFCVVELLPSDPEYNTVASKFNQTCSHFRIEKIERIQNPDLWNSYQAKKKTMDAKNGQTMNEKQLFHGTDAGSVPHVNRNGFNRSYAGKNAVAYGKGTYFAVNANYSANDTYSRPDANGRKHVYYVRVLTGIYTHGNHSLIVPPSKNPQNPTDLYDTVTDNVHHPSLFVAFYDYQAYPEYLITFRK

PARP14 KH8-WWE-ART = target: T2, PARP14 KH8-WWE-ART (human, UniProt Q460N5 1453-1801); test: EMSA; 0.5 uM RNA, 1-5 uM protein, 5 mM Mg2+; possible slight nuclease contamination; EMSA: 20 mM HEPES-KOH pH 7.6, 5 mM MgCl2, 1 mM DTT, 20% glycerol, 1 h room temperature, 6% native PAGE; NMR: 10 mM sodium phosphate, 222 mM NaCl, 2.7 mM KCl, 2; settings: protein: recombinant; label: 5' Cy3; single strand
T2 sequence: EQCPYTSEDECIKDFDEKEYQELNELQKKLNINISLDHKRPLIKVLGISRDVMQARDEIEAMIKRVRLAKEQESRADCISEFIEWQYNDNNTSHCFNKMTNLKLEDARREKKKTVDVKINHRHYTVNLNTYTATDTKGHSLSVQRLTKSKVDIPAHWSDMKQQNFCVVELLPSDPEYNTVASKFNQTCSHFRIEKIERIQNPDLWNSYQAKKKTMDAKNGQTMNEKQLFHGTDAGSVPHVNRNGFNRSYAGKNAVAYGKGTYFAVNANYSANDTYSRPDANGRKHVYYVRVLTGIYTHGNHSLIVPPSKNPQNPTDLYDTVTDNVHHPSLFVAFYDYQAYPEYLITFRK

PARP14 KH1-KH2 = target: T3, PARP14 KH1-KH2 (human, UniProt Q460N5 316-468); test: EMSA; 0.5 uM RNA, 1-5 uM protein, 5 mM Mg2+; efficient binding at micromolar concentrations; EMSA: 20 mM HEPES-KOH pH 7.6, 5 mM MgCl2, 1 mM DTT, 20% glycerol, 1 h room temperature, 6% native PAGE; NMR: 10 mM sodium phosphate, 222 mM NaCl, 2.7 mM KCl, 2; settings: protein: recombinant; label: 5' Cy3; single strand
T3 sequence: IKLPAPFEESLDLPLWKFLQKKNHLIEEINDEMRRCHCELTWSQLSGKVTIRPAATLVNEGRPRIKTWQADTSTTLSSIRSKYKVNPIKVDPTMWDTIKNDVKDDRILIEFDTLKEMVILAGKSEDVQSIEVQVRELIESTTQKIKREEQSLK

Sequence of PARP1 full-length (P09874 2-1014 V762A): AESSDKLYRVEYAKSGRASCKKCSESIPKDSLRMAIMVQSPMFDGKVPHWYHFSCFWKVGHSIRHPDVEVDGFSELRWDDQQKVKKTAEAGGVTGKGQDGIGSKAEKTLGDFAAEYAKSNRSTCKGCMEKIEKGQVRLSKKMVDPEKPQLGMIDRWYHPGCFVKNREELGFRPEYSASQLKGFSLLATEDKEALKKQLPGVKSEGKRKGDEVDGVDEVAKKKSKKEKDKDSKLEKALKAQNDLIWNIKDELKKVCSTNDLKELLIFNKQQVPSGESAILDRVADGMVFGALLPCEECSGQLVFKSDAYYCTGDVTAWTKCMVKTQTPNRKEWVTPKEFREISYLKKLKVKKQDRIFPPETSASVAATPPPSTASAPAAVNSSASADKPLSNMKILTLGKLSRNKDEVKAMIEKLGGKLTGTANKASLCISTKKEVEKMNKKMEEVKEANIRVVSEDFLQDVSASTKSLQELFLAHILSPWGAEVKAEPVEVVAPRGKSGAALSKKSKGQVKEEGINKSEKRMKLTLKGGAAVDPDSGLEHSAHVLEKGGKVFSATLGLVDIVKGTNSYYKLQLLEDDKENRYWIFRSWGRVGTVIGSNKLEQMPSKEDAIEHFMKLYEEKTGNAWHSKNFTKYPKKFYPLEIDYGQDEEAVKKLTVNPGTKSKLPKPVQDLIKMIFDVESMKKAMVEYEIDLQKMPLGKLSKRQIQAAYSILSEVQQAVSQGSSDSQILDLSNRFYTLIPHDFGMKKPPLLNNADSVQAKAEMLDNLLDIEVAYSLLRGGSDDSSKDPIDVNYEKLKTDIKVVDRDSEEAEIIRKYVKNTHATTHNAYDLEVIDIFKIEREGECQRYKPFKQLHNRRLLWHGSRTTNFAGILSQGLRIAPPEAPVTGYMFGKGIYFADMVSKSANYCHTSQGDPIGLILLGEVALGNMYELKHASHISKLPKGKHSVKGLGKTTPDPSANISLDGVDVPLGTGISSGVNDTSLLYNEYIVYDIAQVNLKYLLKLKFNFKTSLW

GCTGGCTTCGTAAGAAGCCAGCTCGCGGTCAGCTTGCTGACCGCG (structured_DNA, 5' phosphate) [45-nt DNA dumbbell]: binds (PARP1 full-length).

GUGGCGCGGAGACUUAGAGAA (ssRNA) [E21 RNA]: no binding (PARP14 WWE-ART); binds (PARP14 KH8-WWE-ART); binds (PARP14 KH1-KH2).
